Biological target: hERG 1b (human, UniProt Q12809 377-1159)
Assay: cell-based or functional assay

B1: hERG 1a (other, human, UniProt Q12809 1-1159, looked up)
chain: MPVRRGHVAPQNTFLDTIIRKFEGQSRKFIIANARVENCAVIYCNDGFCELCGYSRAEVMQRPCTCDFLHGPRTQRRAAAQIAQALLGAEERKVEIAFYRKDGSCFLCLVDVVPVKNEDGAVIMFILNFEVVMEKDMVGSPAHDTNHRGPPTSWLAPGRAKTFRLKLPALLALTARESSVRSGGAGGAGAPGAVVVDVDLTPAAPSSESLALDEVTAMDNHVAGLGPAEERRALVGPGSPPRSAPGQLPSPRAHSLNPDASGSSCSLARTRSRESCASVRRASSADDIEAMRAGVLPPPPRHASTGAMHPLRSGLLNSTSDSDLVRYRTISKIPQITLNFVDLKGDPFLASPTSDREIIAPKIKERTHNVTEKVTQVLSLGADVLPEYKLQAPRIHRWTILHYSPFKAVWDWLILLLVIYTAVFTPYSAAFLLKETEEGPPATECGYACQPLAVVDLIVDIMFIVDILINFRTTYVNANEEVVSHPGRIAVHYFKGWFLIDMVAAIPFDLLIFGSGSEELIGLLKTARLLRLVRVARKLDRYSEYGAAVLFLLMCTFALIAHWLACIWYAIGNMEQPHMDSRIGWLHNLGDQIGKPYNSSGLGGPSIKDKYVTALYFTFSSLTSVGFGNVSPNTNSEKIFSICVMLIGSLMYASIFGNVSAIIQRLYSGTARYHTQMLRVREFIRFHQIPNPLRQRLEEYFQHAWSYTNGIDMNAVLKGFPECLQADICLHLNRSLLQHCKPFRGATKGCLRALAMKFKTTHAPPGDTLVHAGDLLTALYFISRGSIEILRGDVVVAILGKNDIFGEPLNLYARPGKSNGDVRALTYCDLHKIHRDDLLEVLDMYPEFSDHFWSSLEITFNLRDTNMIPGSPGSTELEGGFSRQRKRKLSFRRRTDKDTEQPGEVSALGPGRAGAGPSSRGRPGGPWGESPSSGPSSPESSEDEGPGRSSSPLRLVPFSSPRPPGEPPGGEPLMEDCEKSSDTCNPLSGAFSGVSNIFSFWGDSRGRQYQELPRCPAPTPSLLNIPLSSPGRRPRGDVESRLDALQRQLNRLETRLSADMATVLQLLQRQMTLVPPAYSAVTTPGPGPTSTSPLLPVSPLPTLTLDSLSQVSQFMACEELPPGAPELPQEGPTRRLSLPGQLGALTSQPLHRHGSDPGS
hERG 1b maturation by Western blot analysis: ~3 fold

Source: patent US20100003690A1 (published 2010)
